# Where a SMILES comes first, the peptide text is derived from it. [ ]: non-standard residue; d: D form. The star is where a group is joined. X2 = COc1cc2cc(c1Cl)N(C)C(=O)C[C@H](OC(=O)[C@H](C)N(C)C(=O)CCSSCCC(=O)NCCOCCOCCn1nnc3c1CC[C@H]1[C@@H](CC3)[C@@H]1COC(=O)*)[C@]1(C)O[C@H]1[C@H](C)[C@@H]1C[C@@](O)(NC(=O)O1)[C@H](OC)/C=C/C=C(\C)C2; Propanoyl(3-SS-DM1) = COc1cc2cc(c1Cl)N(C)C(=O)C[C@H](OC(=O)[C@H](C)N(C)C(=O)CCSSCCC(=O)*)[C@]1(C)O[C@H]1[C@H](C)[C@@H]1C[C@@](O)(NC(=O)O1)[C@H](OC)/C=C/C=C(\C)C2; X1 = COc1cc2cc(c1Cl)N(C)C(=O)C[C@H](OC(=O)[C@H](C)N(C)C(=O)CCSSCCC(=O)*)[C@]1(C)O[C@H]1C(C)[C@@H]1C[C@@](O)(NC(=O)O1)[C@H](OC)/C=C/C=C(\C)C2; d(hArg(Et2)) = CCN=C(NCC)NCCCC[C@@H](N)C(=O)O; dPhe(4-Cl) = N[C@H](Cc1ccc(Cl)cc1)C(=O)O; d2Nal = N[C@H](Cc1ccc2ccccc2c1)C(=O)O; d3Pal = N[C@H](Cc1cccnc1)C(=O)O
# Experiments:
# [1] = biological target: T1, LHRHR, also known as GnRHR (Homo sapiens, UniProt P30968); assay: Radioligand binding assay ([125I]-[D-Trp6]-LHRH displacement)
# T1 sequence (P30968 1-328): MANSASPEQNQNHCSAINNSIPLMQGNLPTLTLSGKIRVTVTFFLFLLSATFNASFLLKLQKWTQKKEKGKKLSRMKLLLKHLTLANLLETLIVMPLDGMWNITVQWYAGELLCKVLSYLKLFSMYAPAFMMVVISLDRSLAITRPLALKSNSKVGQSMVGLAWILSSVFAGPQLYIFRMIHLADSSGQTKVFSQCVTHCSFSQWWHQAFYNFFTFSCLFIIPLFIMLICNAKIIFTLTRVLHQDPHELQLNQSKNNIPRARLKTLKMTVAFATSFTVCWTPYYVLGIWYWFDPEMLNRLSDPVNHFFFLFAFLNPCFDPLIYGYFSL
# Procedure: An amount of 2 μg of a purified membrane with LHRHR, also known as GnRHR, was incubated with 0.18 nM [125I]-[D-Trp6]-LHRH and compounds of interest in the incubation buffer (50 mM HEPES, pH 7.4, 5 mM MgCl2, 1 mM CaCl2, and 0.2% BSA). The reaction mixtures were incubated for 1 h at 25° C. and then were transferred to a 96-well GF/B filter plate (Millipore Corp., Billerica, MA, USA), which were terminated by manifold filtration and washed with a wash buffer (50 mM HEPES, pH 7.4, and 100 mM NaCl) for six times. The radioactivity bound to the filter was measured by a Topcount® system (PerkinElmer Inc., Waltham, MA, USA). IC50 values were determined by the concentration of a compound required to inhibit 50% of the specific binding of [125I]-[D-Trp6]-LHRH and calculated by nonlinear regression (GraphPad Software, San Diego, CA, USA). The design of these drug conjugates is to actively targeting LHRH-receptor at tumor site and facilitate drug conjugate accumulation in situ. Therefore, selective and strong binding of the synthetic peptide ligand with the receptor is important to allow enrichment of these conjugates, followed by release of the drug payload in the tumor microenvironment.
# Compounds of the invention have a binding as low as 0.17 nM.
# [2] = In vivo pharmacokinetic profile, mouse single IV dose; details: for Vss (I/kg) / clearance / AUC(0-t): Mouse IV, dose 5 mg/kg; for clearance / AUC(0-t): in vivo; for AUC(0-t): read-out: AUC(0-24 hr); for AUC coverage: single intravenous dose
# Procedure: Pharmacokinetic properties of compounds of the invention were measured following the procedures described in Liu et al., Bioconjugate Chem. 2017, 28, 7, 1878-1892.
# [3] = test system: HCC1806 triple negative breast cancer; assay: In vivo anti-tumor activity in triple-negative breast HCC1806 tumor model; design: species or system immunodeficient nude mice; details: 1 mg/kg to 2.5 mg/kg, every other week, once a week, or twice a week
# Procedure: In vivo anti-tumor activity of Compound 16 was evaluated in triple-negative breast HCC1806 tumor model. HCC1806 cells were suspended with RPMI 1640 medium (phenol red free) and Matrigel™ in 1:1 ratio, and implanted subcutaneously (1×10^6 cells/flank) into the left flank of the immunodeficient nude mice. The tumor volume in mm^3 was calculated by the formula: Volume=(length×width^2)/2. Tumor-bearing mice were randomized (n=8 per group) when the average tumor volume was approximately at 210 mm^3 on day 10 after inoculation. Compound 16 was dissolved in DMA, cremorphor and 5% dextrose solution (1:2:27, v/v/v). Tumor-bearing mice were intravenously administered once weekly (qw) or bi-weekly (b2w) with multiple doses of vehicle control (5 mL/kg) and DBPR376 (2.5 mg/kg). Tumor size and body weight of each animal were measured twice weekly during the study period.
# Compounds 8, 9, 11, 14, 16, 25, 26, and 27 were evaluated following the procedure described above.
Structure (SMILES),IC50 [1] [nM],Vss (I/kg) [2] [I/kg],clearance [2] [mL/min/kg],AUC(0-t) [2] [ng·h/mL],AUC coverage [2],inhibition of in vivo tumor growth [3]
COc1cc2cc(c1Cl)N(C)C(=O)C[C@H](OC(=O)[C@H](C)N(C)C(=O)CCSSCCC(=O)NCCCC[C@@H](NC(=O)[C@H](Cc1ccc(O)cc1)NC(=O)[C@H](CO)NC(=O)[C@@H](Cc1cccnc1)NC(=O)[C@@H](Cc1ccc(Cl)cc1)NC(=O)[C@@H](Cc1ccc3ccccc3c1)NC(C)=O)C(=O)N[C@@H](CC(C)C)C(=O)N[C@@H](CCCNC(=N)N)C(=O)N1CCC[C@H]1C(=O)N[C@H](C)C(N)=O)[C@]1(C)O[C@H]1C(C)[C@@H]1C[C@@](O)(NC(=O)O1)[C@H](OC)/C=C/C=C(\C)C2 (some centres unmarked) [Compound 8] (Ac-[d2Nal][dPhe(4-Cl)][d3Pal]SY[dK](X1)LRP[dA]-NH2),0.1 to 1,0.25,1.6,55100,extensive AUC coverage,effectively inhibited
COc1cc2cc(c1Cl)N(C)C(=O)C[C@H](OC(=O)[C@H](C)N(C)C(=O)CCSC(=O)c1ccc(CN(CCOCCOCCn3nnc4c3CC[C@@H]3[C@H](CC4)[C@H]3COC(=O)N(CCCC[C@H](NC(=O)[C@H](CC(C)C)NC(=O)[C@@H](Cc3ccc(NC(N)=O)cc3)NC(=O)[C@H](Cc3ccc(NC(=O)[C@@H]4CC(=O)NC(=O)N4)cc3)NC(=O)[C@H](CO)NC(=O)[C@@H](Cc3cccnc3)NC(=O)[C@@H](Cc3ccc(Cl)cc3)NC(=O)[C@@H](Cc3ccc4ccccc4c3)NC(C)=O)C(=O)N3CCC[C@H]3C(=O)N[C@H](C)C(N)=O)C(C)C)C(=O)C3(c4ccc(Cl)cc4)CCCCC3)cc1)[C@]1(C)O[C@H]1[C@H](C)[C@@H]1C[C@@](O)(NC(=O)O1)[C@H](OC)/C=C/C=C(\C)C2 [Compound 9],–,0.2,6.7,12500,extensive AUC coverage,effectively inhibited
CCNC(=NCCCC[C@@H](NC(=O)[C@H](CC(C)C)NC(=O)[C@@H](CCCCNC(=O)OC[C@H]1[C@@H]2CCc3nnn(CCOCCOCCN(Cc4ccc(C(=O)SCCC(=O)N(C)[C@@H](C)C(=O)O[C@H]5CC(=O)N(C)c6cc(cc(OC)c6Cl)C/C(C)=C/C=C/[C@@H](OC)[C@@]6(O)C[C@H](OC(=O)N6)[C@@H](C)[C@@H]6O[C@@]56C)cc4)C(=O)C4(c5ccc(Cl)cc5)CCCCC4)c3CC[C@@H]21)NC(=O)[C@H](Cc1ccc(O)cc1)NC(=O)[C@H](CO)NC(=O)[C@@H](Cc1cccnc1)NC(=O)[C@@H](Cc1ccc(Cl)cc1)NC(=O)[C@@H](Cc1ccc2ccccc2c1)NC(C)=O)C(=O)N1CCC[C@H]1C(=O)N[C@H](C)C(N)=O)NCC [Compound 11],–,0.1,4,21000,–,effectively inhibited
CCNC(=NCCCC[C@@H](NC(=O)[C@H](CC(C)C)NC(=O)[C@@H](CCCCNC(=O)CCSSCCC(=O)N(C)[C@@H](C)C(=O)O[C@H]1CC(=O)N(C)c2cc(cc(OC)c2Cl)C/C(C)=C/C=C/[C@@H](OC)[C@@]2(O)C[C@H](OC(=O)N2)C(C)[C@@H]2O[C@@]12C)NC(=O)[C@H](Cc1ccc(O)cc1)NC(=O)[C@H](CO)NC(=O)[C@@H](Cc1cccnc1)NC(=O)[C@@H](Cc1ccc(Cl)cc1)NC(=O)[C@@H](Cc1ccc2ccccc2c1)NC(C)=O)C(=O)N1CCC[C@H]1C(=O)N[C@H](C)C(N)=O)NCC (some centres unmarked) [Compound 14] (Ac-[d2Nal][dPhe(4-Cl)][d3Pal]SY[dK](X1)L[d(hArg(Et2))]P[dA]-NH2),1 to 10,0.2,0.9,88300,extensive AUC coverage,effectively inhibited
COc1cc2cc(c1Cl)N(C)C(=O)C[C@H](OC(=O)[C@H](C)N(C)C(=O)CCSC(=O)c1ccc(CN(CCOCCOCCn3nnc4c3CC[C@H]3[C@@H](CC4)[C@@H]3COC(=O)NCCCC[C@@H](NC(=O)[C@H](Cc3ccc(O)cc3)NC(=O)[C@H](CO)NC(=O)[C@@H](Cc3cccnc3)NC(=O)[C@@H](Cc3ccc(Cl)cc3)NC(=O)[C@@H](Cc3ccc4ccccc4c3)NC(C)=O)C(=O)N[C@@H](CC(C)C)C(=O)N[C@@H](CCCNC(=N)N)C(=O)N3CCC[C@H]3C(=O)N[C@H](C)C(N)=O)C(=O)C3(c4ccc(Cl)cc4)CCCCC3)cc1)[C@]1(C)O[C@H]1[C@H](C)[C@@H]1C[C@@](O)(NC(=O)O1)[C@H](OC)/C=C/C=C(\C)C2 [Compound 16],–,0.5,15.5,4860,–,effectively inhibited
COc1cc2cc(c1Cl)N(C)C(=O)C[C@H](OC(=O)[C@H](C)N(C)C(=O)CCSSCCC(=O)NCCCC[C@@H](NC(=O)[C@H](Cc1ccc(O)cc1)NC(=O)[C@H](CO)NC(=O)[C@@H](Cc1cccnc1)NC(=O)[C@@H](Cc1ccc(Cl)cc1)NC(=O)[C@@H](Cc1ccc3ccccc3c1)NC(C)=O)C(=O)N[C@@H](CC(C)C)C(=O)N[C@H](CCCNC(=N)N)C(=O)N1CCC[C@H]1C(=O)N[C@H](C)C(N)=O)[C@]1(C)O[C@H]1[C@H](C)[C@@H]1C[C@@](O)(NC(=O)O1)[C@H](OC)/C=C/C=C(\C)C2 [Compound 24] (Ac-[d2Nal][dPhe(4-Cl)][d3Pal]SY[dK](Propanoyl(3-SS-DM1))L[dR]P[dA]-NH2),1 to 10,–,–,–,–,–
COc1cc2cc(c1Cl)N(C)C(=O)C[C@H](OC(=O)[C@H](C)N(C)C(=O)CCSSCCC(=O)NCCOCCOCCn1nnc3c1CC[C@H]1[C@@H](CC3)[C@@H]1COC(=O)NCCCC[C@@H](NC(=O)[C@H](Cc1ccc(O)cc1)NC(=O)[C@H](CO)NC(=O)[C@@H](Cc1cccnc1)NC(=O)[C@@H](Cc1ccc(Cl)cc1)NC(=O)[C@@H](Cc1ccc3ccccc3c1)NC(C)=O)C(=O)N[C@@H](CC(C)C)C(=O)N[C@@H](CCCNC(=N)N)C(=O)N1CCC[C@H]1C(=O)N[C@H](C)C(N)=O)[C@]1(C)O[C@H]1[C@H](C)[C@@H]1C[C@@](O)(NC(=O)O1)[C@H](OC)/C=C/C=C(\C)C2 [Compound 25] (Ac-[d2Nal][dPhe(4-Cl)][d3Pal]SY[dK](X2)LRP[dA]-NH2),–,–,–,–,–,effectively inhibited
CCNC(=NCCCC[C@@H](NC(=O)[C@H](CC(C)C)NC(=O)[C@@H](CCCCNC(=O)OC[C@H]1[C@@H]2CCc3nnn(CCOCCOCCNC(=O)CCSSCCC(=O)N(C)[C@@H](C)C(=O)O[C@H]4CC(=O)N(C)c5cc(cc(OC)c5Cl)C/C(C)=C/C=C/[C@@H](OC)[C@@]5(O)C[C@H](OC(=O)N5)[C@@H](C)[C@@H]5O[C@@]45C)c3CC[C@@H]21)NC(=O)[C@H](Cc1ccc(O)cc1)NC(=O)[C@H](CO)NC(=O)[C@@H](Cc1cccnc1)NC(=O)[C@@H](Cc1ccc(Cl)cc1)NC(=O)[C@@H](Cc1ccc2ccccc2c1)NC(C)=O)C(=O)N1CCC[C@H]1C(=O)N[C@H](C)C(N)=O)NCC [Compound 26] (Ac-[d2Nal][dPhe(4-Cl)][d3Pal]SY[dK](X2)L[d(hArg(Et2))]P[dA]-NH2),–,–,–,–,–,effectively inhibited
COc1cc2cc(c1Cl)N(C)C(=O)C[C@H](OC(=O)[C@H](C)N(C)C(=O)CCSC(=O)c1ccc(CN(CCOCCOCCn3nnc4c3CC[C@H]3[C@@H](CC4)[C@@H]3COC(=O)NCCCC[C@@H](NC(=O)[C@H](Cc3ccc(O)cc3)NC(=O)[C@H](CO)NC(=O)[C@@H](Cc3cccnc3)NC(=O)[C@@H](Cc3ccc(Cl)cc3)NC(=O)[C@@H](Cc3ccc4ccccc4c3)NC(C)=O)C(=O)N[C@@H](CC(C)C)C(=O)N[C@H](CCCNC(=N)N)C(=O)N3CCC[C@H]3C(=O)N[C@H](C)C(N)=O)C(=O)C3(c4ccc(Cl)cc4)CCCCC3)cc1)[C@]1(C)O[C@H]1[C@H](C)[C@@H]1C[C@@](O)(NC(=O)O1)[C@H](OC)/C=C/C=C(\C)C2 [Compound 27],–,0.1,6.4,15900,–,effectively inhibited

# Reference: US20250121078A1, “PEPTIDE DRUG CONJUGATES AND THEIR USES” (priority 2023, published 2025)
